We go through three molecules from US20100227824A1 (SYMTHERA CANADA, published 2010).

T1: IL-8 (CXCL8) (UniProt P10145 28-99, limits assumed)
T1 construct: also called IL-8(72aa); IL-8(77aa)
T1 sequence (looked up): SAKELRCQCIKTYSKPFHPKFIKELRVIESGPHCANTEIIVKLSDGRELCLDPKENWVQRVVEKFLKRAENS

T2: Mig (CXCL9) (UniProt Q07325 23-125)
T2 construct: Bought chemokine
T2 sequence (looked up): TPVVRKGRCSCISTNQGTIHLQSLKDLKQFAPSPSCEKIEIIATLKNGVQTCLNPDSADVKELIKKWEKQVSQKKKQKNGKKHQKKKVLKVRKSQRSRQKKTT

T3: IP-10 (CXCL10) (UniProt P02778 22-98)
T3 construct: Bought chemokine
T3 sequence (looked up): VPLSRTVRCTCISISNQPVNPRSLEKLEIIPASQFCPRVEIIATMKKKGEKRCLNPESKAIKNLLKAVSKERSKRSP

T4: I-TAC (CXCL11) (UniProt O14625 22-94)
T4 construct: Bought chemokine; also called I-TACK
T4 sequence (looked up): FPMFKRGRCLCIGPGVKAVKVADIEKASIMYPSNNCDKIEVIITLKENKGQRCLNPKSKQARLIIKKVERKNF

T5: I-309 (CCL1) (UniProt P22362 23-96, limits assumed)
T5 construct: Bought chemokine
T5 sequence (looked up): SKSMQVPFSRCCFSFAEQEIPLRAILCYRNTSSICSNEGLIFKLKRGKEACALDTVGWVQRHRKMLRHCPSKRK

T6: MCP-2 (CCL8) (UniProt P80075 24-99)
T6 construct: Bought chemokine
T6 sequence (looked up): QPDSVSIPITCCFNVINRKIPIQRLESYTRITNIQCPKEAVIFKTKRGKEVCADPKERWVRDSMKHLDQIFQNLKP

T7: RANTES (CCL5) (UniProt P13501 24-91)
T7 construct: Bought chemokine
T7 sequence (looked up): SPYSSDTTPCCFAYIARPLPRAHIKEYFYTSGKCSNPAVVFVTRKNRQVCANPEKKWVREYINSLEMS

T8: Eotaxin 2 (CCL24) (UniProt O00175 27-104, limits assumed)
T8 construct: Bought chemokine
T8 sequence (looked up): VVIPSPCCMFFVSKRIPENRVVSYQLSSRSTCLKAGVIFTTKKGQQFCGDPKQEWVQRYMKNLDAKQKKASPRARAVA

T9: Eotaxin 3 (CCL26) (UniProt Q9Y258 24-94)
T9 construct: Bought chemokine
T9 sequence (looked up): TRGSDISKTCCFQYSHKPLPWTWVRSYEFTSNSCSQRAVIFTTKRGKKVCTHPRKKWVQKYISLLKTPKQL

T10: BCA-1 (CXCL13) (UniProt O43927 23-109)
T10 construct: Bought chemokine
T10 sequence (looked up): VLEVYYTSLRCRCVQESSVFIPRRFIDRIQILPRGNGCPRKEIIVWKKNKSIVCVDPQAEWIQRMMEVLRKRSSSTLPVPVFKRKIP

T11: Exodus-2 (CCL21) (UniProt O00585 24-134)
T11 construct: Bought chemokine
T11 sequence (looked up): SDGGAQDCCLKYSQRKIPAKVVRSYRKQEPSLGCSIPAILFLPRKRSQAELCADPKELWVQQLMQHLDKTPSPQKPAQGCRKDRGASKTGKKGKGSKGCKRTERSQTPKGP

T12: TECK (CCL25) (UniProt O15444 24-150)
T12 construct: Bought chemokine
T12 sequence (looked up): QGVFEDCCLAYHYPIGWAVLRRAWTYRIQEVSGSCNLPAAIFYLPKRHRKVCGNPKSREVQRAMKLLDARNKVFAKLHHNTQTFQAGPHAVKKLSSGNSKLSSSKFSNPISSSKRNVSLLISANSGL

T13: Lymphotactin (XCL-1) (UniProt P47992 23-114, limits assumed)
T13 construct: Bought chemokine
T13 sequence (looked up): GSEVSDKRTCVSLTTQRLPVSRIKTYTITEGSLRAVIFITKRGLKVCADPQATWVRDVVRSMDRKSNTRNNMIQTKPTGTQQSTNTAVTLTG

B1: Phage-Presented Peptide 31 (Ph-p31) (peptide)
peptide: DYDYG
B2: Phage-Presented Peptide 8.6 (Ph-p8.6) (peptide)
peptide: WVFGAAACK
B3: Phage-Presented Peptide 8.7 (Ph-p8.7) (peptide)
peptide: WVFGNAACK

T18 sequence (P48061 22-93 limits assumed): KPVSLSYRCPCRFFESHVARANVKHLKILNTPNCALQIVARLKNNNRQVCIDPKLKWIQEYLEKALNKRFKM
T17 sequence (P48061 22-89 limits assumed): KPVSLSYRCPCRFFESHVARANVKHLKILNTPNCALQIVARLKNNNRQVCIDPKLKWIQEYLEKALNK
T14 sequence (P13500 24-99 limits assumed): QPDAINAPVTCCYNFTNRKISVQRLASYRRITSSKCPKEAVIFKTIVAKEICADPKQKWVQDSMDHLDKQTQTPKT

The first assay concerns the target T1, IL-8 (CXCL8). The assay is described as follows: micro-array, phage-presented peptide on printed CK. The method, then:
(§1) (1) Printing: Chemokine (CK) solution (in water) was serially diluted with Print Reagent (GenTel BioSurfaces USA) to final concentrations of 50 μg and 25 μg/ml. BSA/BSA-Biotin control solutions (in water) were diluted with Print Reagent to 100 μg/ml. Amplified stock of M13 phage control (M13KEgIII Cloning Vector, New England Biolabs, Cat.No.E8101S) was stored in Tris Buffered Saline (TBS; pH7.5, 4° C.) and diluted with Print Reagent to the working titre (10^8 pfu/μl). An automated spotting robot (16 pin print tool, 0.4mm head; BioRobotics, UK) was used to print the CK/BSA control/M13 control, 5 repeats per sample (CK 25 μg/ml and 50 μg/ml; BSA 100 μg/ml; M13 20 μl), on PATH Protein Microarray Slides (GenTel, Prod.No.2-1005/-1025) at […], and 50-70% relative humidity. Printed micro-array slides were stored at Room Temperature (RT) or 4° C. for at least 24 h before use.
(§2) (2) Blocking: Block Buffer (500 μl/partition; PATHblock, GenTel, Prod.No.2-1014) was applied to the slide for 1 hour at room temp (RT). After removal of Block Buffer, the slide was air dried for 25 minutes;
(§3) (11) Analysis: Quantitative analysis of micro-array was performed by the SpotReader program of Niles Scientific (USA) and presented as Relative Fluorescence (RF) as a function of CK concentration. Micro-array readout (Cy3 fluorescence) was quantified to determine the relative binding affinities of a CBP for the CKs and by inference, the specificity of the CBP for binding to a CK.
As for B1, the “Relative Fluorescence Units (RFU)” value is greater than 15000 RFU.

Another assay concerns the target T2, Mig (CXCL9). Briefly: micro-array, phage-presented peptide on printed CK. Here is the method:
as §1, §2, §3
Regarding B2, the binding result is “binds”.
The same measure, in the same setting: the same measure for B3: “binds”.
For B1, the “Relative Fluorescence Units (RFU)” value is greater than 15000 RFU.

A further assay addresses T3, IP-10 (CXCL10). Briefly: micro-array, phage-presented peptide on printed CK. The method, then: as §1, §2, §3
On to B2, for which the binding result is listed as “binds”.
Same read-out and setting: the same measure for B3: “binds”.

The target in the next assay is T4, I-TAC (CXCL11). The assay is described as follows: micro-array, phage-presented peptide on printed CK. The method, then:
as §1, §2, §3
On to B2, for which the binding result is “binds”.
Still for that read-out and setting: the same measure for B3: “binds”.
As to B1, the “Relative Fluorescence Units (RFU)” value was greater than 15000 RFU.

In the next assay the target is T5, I-309 (CCL1). Briefly: micro-array, phage-presented peptide on printed CK. The method, then: as §1, §2, §3
As for B2, the binding result is reported as “binds”.
On the same count and under the same terms, the same measure for B3: “binds”.
Take B1: the “Relative Fluorescence Units (RFU)” value is greater than 15000 RFU.

A further assay concerns the target T14, MCP-1 (CCL2) (UniProt P13500 24-99).
T14 construct: Bought chemokine
Briefly: micro-array, phage-presented peptide on printed CK. The method, then: as §1, §2, §3
Turning to B2, the “Relative Fluorescence Units (RFU)” value was greater than 15000 RFU.
Regarding B1, the “Relative Fluorescence Units (RFU)” value is greater than 15000 RFU.

A further assay addresses T6, MCP-2 (CCL8). The assay is described as follows: micro-array, phage-presented peptide on printed CK. Here is the method:
as §1, §2, §3
For the molecule B2, the “Relative Fluorescence Units (RFU)” value was greater than 15000 RFU.
Still for that read-out and setting: the same measure for B3: greater than 15000 RFU; for B1: greater than 15000 RFU.

The target of another assay is T15, MCP-4 (CCL13) (UniProt Q99616 24-98).
T15 construct: Bought chemokine
T15 sequence (Q99616 24-98 limits assumed): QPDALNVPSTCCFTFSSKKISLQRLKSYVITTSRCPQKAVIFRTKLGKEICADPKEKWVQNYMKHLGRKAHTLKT
The assay is described as follows: micro-array, phage-presented peptide on printed CK. Here is the method: as §1, §2, §3
On to B2, for which the “Relative Fluorescence Units (RFU)” value is greater than 15000 RFU.
As for B3, the “Relative Fluorescence Units (RFU)” value is greater than 15000 RFU.
On to B1, for which the “Relative Fluorescence Units (RFU)” value was greater than 15000 RFU.

For a further assay, the target named is T7, RANTES (CCL5). Briefly: micro-array, phage-presented peptide on printed CK. Here is the method:
as §1, §2, §3
For the molecule B1, the “Relative Fluorescence Units (RFU)” value was greater than 15000 RFU.

The target of the next assay is T16, Eotaxin (CCL11) (UniProt P51671 24-97).
T16 construct: Bought chemokine
T16 sequence (P51671 24-97 limits assumed): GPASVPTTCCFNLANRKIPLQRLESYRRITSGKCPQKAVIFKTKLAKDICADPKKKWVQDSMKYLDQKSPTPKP
Briefly: micro-array, phage-presented peptide on printed CK. The method, then:
as §1, §2, §3
With B2, the binding result is given as “binds”.
Still for that read-out and setting: the same measure for B3: “binds”.
As for B1, the “Relative Fluorescence Units (RFU)” value is greater than 15000 RFU.

The next assay has as its target T8, Eotaxin 2 (CCL24). Briefly: micro-array, phage-presented peptide on printed CK. Here is the method: as §1, §2, §3
On to B2, for which the binding result is listed as “binds”.
As for B1, the “Relative Fluorescence Units (RFU)” value is greater than 15000 RFU.

In another assay the target is T9, Eotaxin 3 (CCL26). The assay is described as follows: micro-array, phage-presented peptide on printed CK. The method, then: as §1, §2, §3
With B2, the binding result is recorded as “binds”.
The same measure, in the same setting: the same measure for B3: “binds”.
For B1, the “Relative Fluorescence Units (RFU)” value is greater than 15000 RFU.

Another assay addresses T17, SDF-1α (CXCL12) (UniProt P48061-2 22-89).
T17 construct: Alpha isoform of CXCL12; also called SDFα
Briefly: micro-array, phage-presented peptide on printed CK. Here is the method:
as §1, §2, §3
B2: the binding result was “binds”.
As for B1, the binding result is on record as “binds”.

Another assay has as its target T18, SDF-1β (CXCL12) (UniProt P48061 22-93).
T18 construct: Beta isoform of CXCL12; also called SDFβ
The assay is described as follows: micro-array, phage-presented peptide on printed CK. The method, then: as §1, §2, §3
As to B2, the binding result was “binds”.
The same measure, in the same setting: the same measure for B3: “binds”; for B1: “binds”.

Another assay addresses T10, BCA-1 (CXCL13). The assay is described as follows: micro-array, phage-presented peptide on printed CK. The method, then:
as §1, §2, §3
As to B2, the binding result was “binds”.
On the same count and under the same terms, the same measure for B3: “binds”; for B1: “binds”.

A further assay concerns the target T11, Exodus-2 (CCL21). The assay is described as follows: micro-array, phage-presented peptide on printed CK. Here is the method:
as §1, §2, §3
Take B2: the binding result is “binds”.
On to B1, for which the binding result is on record as “binds”.

The target of the next assay is T12, TECK (CCL25). The assay is described as follows: micro-array, phage-presented peptide on printed CK. The method, then:
as §1, §2, §3
With B2, the binding result was “binds”.
On the same count and under the same terms, the same measure for B3: “binds”.
On the same count and under the same terms, the same measure for B1: “binds”.

The target in the next assay is T13, Lymphotactin (XCL-1). The assay is described as follows: micro-array, phage-presented peptide on printed CK. Here is the method: as §1, §2, §3
With B2, the binding result is reported as “binds”.
Same read-out and setting: the same measure for B3: “binds”; for B1: “binds”.
